Measured values as given in US20240150490A1 (MABPRO A S, published 2024).
Positions count from the first letter of the chain named.

B1: CA9hu-1 chimeric HC0LC0 (antibody, V domains shown)
VH: EVKLVESGGGLVQPGGSLRLSCATSGFTFTDYYMHWVRQPPGMALEWLAFIRNKASGYTPQYSASVKGRFTISRDVSQTILYLQMNTLRPEDSATYYCVRGGHAGSNYWYFDVWGAGTTVTVSS
VL: DIQMNQSPSSLSASLGDTITIACHVSQNINVWLSWYQQKPGNIPKLLIYQASNLHTGVPSRFTGSGSGTGFTLTISSLQPEDIATYYCQQGQSYPFTFGSGTKLEIK
notes: also called HC0LC0 (CA9hu-1); chimeric variant
B2: CA9hu-1_HC4LC4 (antibody, V domains shown)
VH: EVQLVESGGGLVQPGGSLRLSCAASGFTFTDYYMHWVRQAPGRGLEWVAFIRNKASGYTPQYSASVKGRFTISRDNAENSLYLQMNSLRAEDTAVYYCVRGGHAGSNYWYFDVWGKGTTVTVSS
VL: DIQMTQSPSSLSASVGDRVTINCHVSQNINVWLSWYQQKPGEAPKLLIYQASNLHTGVPSRFSGSGSGTGFTLTIRSLQPEDYATYYCQQGQSYPFTFGQGTKLEIK
notes: Humanized from murine VII/20; also called HC4LC4 (CA9hu-1)
B3: CA9hu-1_HC4LC2 (antibody, V domains shown)
VH: B2 VH
VL: B2 VL with S10T, N22T, E42N, G70E, R76G, E81D, Y83F, A84V, L104V
notes: Humanized from murine VII/20; also called HC4LC2 (CA9hu-1)
B4: CA9hu-1_HC3LC1 (antibody, V domains shown)
VH: QVQLVQSGGGLVQPGRSLRLSCTASGFTFTDYYMHWVRQAPGKGLEWVGFIRNKASGYTPQYSASVKGRFTISRDDSKTIAYLQMNSLKTEDTAVYYCVRGGHAGSNYWYFDVWGQGTLVTVSS
VL: B2 VL with N22T, E42K, K45N, G70H, R76S, Y83I, Q100G, L104V
notes: Humanized from murine VII/20; also called HC3LC1 (CA9hu-1)
B5: CA9hu-1_HC4LC1 (antibody, V domains shown)
VH: B2 VH
VL: B2 VL with N22T, E42K, K45N, G70H, R76S, Y83I, Q100G, L104V
notes: Humanized from murine VII/20; also called HC4LC1 (CA9hu-1)
B6: CA9hu-1_HC3LC2 (antibody, V domains shown)
VH: B4 VH
VL: B2 VL with S10T, N22T, E42N, G70E, R76G, E81D, Y83F, A84V, L104V
notes: Humanized from murine VII/20; also called HC3LC2 (CA9hu-1)
B7: CA9hu-1_HC4LC5 (antibody, V domains shown)
VH: B2 VH
VL: B2 VL with N22T, E42K, G70D, L73F, R76S, Y83I
notes: Humanized from murine VII/20; also called HC4LC5 (CA9hu-1)
B8: CA9hu-1_HC4LC3 (antibody, V domains shown)
VH: B2 VH
VL: B2 VL with N22T, G70D, R76S, Y83F
notes: Humanized from murine VII/20; also called HC4LC3 (CA9hu-1)
B9: CA9hu-1_HC5LC2 (antibody, V domains shown)
VH: B4 VH with Q1E, Q6E, R16G, T23A, T79N, I80S, A81L, L119M
VL: B2 VL with S10T, N22T, E42N, G70E, R76G, E81D, Y83F, A84V, L104V
notes: Humanized from murine VII/20; also called HC5LC2 (CA9hu-1)
B10: CA9hu-1_HC3LC4 (antibody, V domains shown)
VH: B4 VH
VL: B2 VL
notes: Humanized from murine VII/20; also called HC3LC4 (CA9hu-1)
B11: CA9hu-1_HC5LC5 (antibody, V domains shown)
VH: B4 VH with Q1E, Q6E, R16G, T23A, T79N, I80S, A81L, L119M
VL: B2 VL with N22T, E42K, G70D, L73F, R76S, Y83I
notes: Humanized from murine VII/20; also called HC5LC5 (CA9hu-1)
B12: CA9hu-1_HC3LC3 (antibody, V domains shown)
VH: B4 VH
VL: B2 VL with N22T, G70D, R76S, Y83F
notes: Humanized from murine VII/20; also called HC3LC3 (CA9hu-1)
B13: CA9hu-1_HC3LC5 (antibody, V domains shown)
VH: B4 VH
VL: B2 VL with N22T, E42K, G70D, L73F, R76S, Y83I
notes: Humanized from murine VII/20; also called HC3LC5 (CA9hu-1)
B14: CA9hu-1_HC5LC4 (antibody, V domains shown)
VH: B4 VH with Q1E, Q6E, R16G, T23A, T79N, I80S, A81L, L119M
VL: B2 VL
notes: Humanized from murine VII/20; also called HC5LC4 (CA9hu-1)

What was measured:
recombinant human CA IX = recombinant human CA IX (human, UniProt Q16790 38-414); assay: SPR (Biacore 2000), antibody captured on CM5 chip, rh CA IX in flow, 25 C
Experimental: In order to determinate the antigen-binding affinity of humanized variants, measurements of affinity constant (KD) for antibodies binding to CA IX were performed by SPR using a Biacore 2000 (T200 in case of CA9hu-2) instrument (GE Healthcare, Piscataway, NJ USA). Each humanized antibody variant was captured on the CM5 sensor chip and recombinant human CA IX (rh CA IX; 42 kDa; R&D Systems, Inc., Minneapolis MN, USA) protein as an antigen was added to the buffer flowing over the chip. The setting details of quantitative interaction analysis between humanized antibodies and rh CA IX were as follows: flow rate 30 μl/min; analysis temperature 25° C.; analysis buffer (10mM HEPES pH 7.4, 150 mM NaCl, […], 0.05% Tween 20). Results from SPR analysis are expressed as the equilibrium dissociation constant (KD) (Table 7).

[1] = molecular target: CA IX expressed by cells (C-33a_CA IX transfectants; hypoxic BT-20, JIMT-1, 8-MG-BA and 42-MG-BA cells) (human, UniProt Q16790 38-459); assay: cell-based or functional assay

| Binder | Kd (recombinant human CA IX) | ADCC reporter activity, induction over no Ab, BT-20 cells [1] |
| --- | --- | --- |
| B1 | 22 nM | – |
| B2 | 15.2 nM | > 25 fold |
| B3 | 9.1 nM | – |
| B4 | 91 nM | – |
| B5 | 15.2 nM | – |
| B6 | 81 nM | – |
| B7 | 12.3 nM | – |
| B8 | 10.7 nM | – |
| B9 | 52 nM | – |
| B10 | 97 nM | – |
| B11 | 64 nM | – |
| B12 | 82 nM | – |
| B13 | 83 nM | – |
| B14 | 54 nM | – |
